Measured values taken from publication PMC1868780, “Short RNA Guides Cleavage by Eukaryotic RNase III”.

Target: T1, Rnt1p (yeast RNase III) (Saccharomyces cerevisiae, UniProt Q02555 1-471)
T1 sequence: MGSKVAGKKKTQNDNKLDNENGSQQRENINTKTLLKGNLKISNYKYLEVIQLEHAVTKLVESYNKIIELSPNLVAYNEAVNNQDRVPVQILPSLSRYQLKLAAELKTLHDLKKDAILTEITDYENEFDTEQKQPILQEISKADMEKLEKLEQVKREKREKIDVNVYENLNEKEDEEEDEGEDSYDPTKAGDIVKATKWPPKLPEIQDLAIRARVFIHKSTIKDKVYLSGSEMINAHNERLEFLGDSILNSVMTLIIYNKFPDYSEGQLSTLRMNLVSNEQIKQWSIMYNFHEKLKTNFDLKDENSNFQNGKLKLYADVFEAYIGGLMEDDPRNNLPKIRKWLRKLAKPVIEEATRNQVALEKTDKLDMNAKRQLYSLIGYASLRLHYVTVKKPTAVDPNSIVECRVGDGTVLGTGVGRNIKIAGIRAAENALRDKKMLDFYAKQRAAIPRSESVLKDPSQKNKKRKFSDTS
Test: EMSA; apparent K'd; Protein EMSA as in cited ref 12 (buffer not given): 3 fmol 5'-labeled RNA, Rnt1p 0.25-6 uM; trans reactions with 2 pmol cold target
Settings: protein: recombinant; chain copies: 2; label: 5'-32P; hairpin

B1: 3'-Branch (structured_RNA)
RNA: GCUUGAAGAGGAUGAGUCCAUCCCCAAAACAUUAGCUUGAAAAAGCUAAUGUUUUGGAAUCUUCAAGAUUAUGG
Kd: 750 nM
